Measurements: patent publication US20230220081A1 (Xencor, published 2023)

Biological target: T1, PD-1 on SEB-stimulated human T cells (human, UniProt Q15116 25-288)
T1 construct: whole, on cells; also called SEB-stimulated T cells
Test: flow cytometry on SEB-stimulated human PBMCs, APC anti-human kappa MFI on CD3-FITC+ cells
Experimental: Binding of anti-PD-1 clone 1C11 to T cells was measured in an SEB-stimulated PBMC assay. Staphylococcal Enterotoxin B (SEB) is a superantigen that causes T cell activation and proliferation in a manner similar to that achieved by activation via the T cell receptor (TCR), including expression of checkpoint receptors such as PD-1. Human PBMCs were stimulated with […] for 3 days. Following stimulation, PBMCs were incubated with the indicated test articles at indicated concentrations at 4° C. for 30 min. PBMCs were stained with anti-CD3-FITC (UCHT1) and APC labeled antibody for human immunoglobulin κ light chain. The binding of the test articles to T cells as indicated by APC MFI on FITC+ cells is depicted in FIG. 17.

T1 sequence (Q15116 25-288): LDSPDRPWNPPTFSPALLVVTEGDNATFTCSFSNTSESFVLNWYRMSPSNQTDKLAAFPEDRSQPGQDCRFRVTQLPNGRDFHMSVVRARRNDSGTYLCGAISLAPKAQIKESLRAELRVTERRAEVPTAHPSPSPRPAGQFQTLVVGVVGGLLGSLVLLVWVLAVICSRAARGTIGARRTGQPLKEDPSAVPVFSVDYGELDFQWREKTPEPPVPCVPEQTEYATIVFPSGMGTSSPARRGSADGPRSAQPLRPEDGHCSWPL

binding result: binds
B1: XENP21575, chimeric anti-PD-1 antibody based on the variable regions of hybridoma clone 1C11 and human IgG1 with E233P/L234V/L235A/G236del/S267K substitutions … (antibody, V domains shown)
VH: QIQLVQSGPELKKPGETVKISCRASGYTFTHYGMNWVKQAPGKGLKWMGWINTYTGEPTYADDFKGRFAFSLETSASTAYLQINNLKNEDTATYFCARDYYGSSPYWGQGTTLTVSS
VL: DVLMTQTPLSLPVSLGDQASISCRSSQSIVHSNGNTYLEWYLQKPGQSPKLLIYKVSNRFSGVPDRFSGSGSGTDFTLKISRVEAEDLGVYYCFQGSHVPNTFGGGTKLEIKR
notes: Mouse hybridoma variable regions on human IgG1 with FcγR ablation substitutions (EU numbering); also called anti-PD-1 clone 1C11
